Results published in US20100303814A1 (VIVENTIA BIOTECHNOLOGIES, published 2010).
Where no end group is shown, it is not given here. The star is where a group is joined. Biotin = O=C1N[C@H]2[C@H](CS[C@H]2CCCCC(=O)*)N1

How the values were obtained:
[1] = molecular target: T1, prostate stem cell antigen (PSCA) (human, UniProt O43653 12-83); assay: immunoprecipitation with VB1-213, in-solution digest, mass spectrometry
T1 sequence: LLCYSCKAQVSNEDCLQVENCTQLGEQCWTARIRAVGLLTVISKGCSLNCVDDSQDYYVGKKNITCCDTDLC
Protocol: A pre-clearing step using protein-G sepharose alone was the first step in the purification of the antigen prior to the addition of the antibody. In certain cases, pre-clearing was performed twice to add more stringency to the assay. A total of 50 μg of antibody was used as the precipitating agent in the mixture. The antigen-antibody mixtures were nutated overnight at 4° C. using buffer conditions that mimicked physiological conditions. Care was taken to ensure that protease inhibitors were used in every step of the antigen isolation process.
The extracted peptides were concentrated and desalted using μ-C18 columns and used for MS analysis. Two distinct proteins were identified, in all three cell lines, as “Mixture1”, consisting of HnRNPG+Prostate stem cell antigen (PSCA). HnRNPG and PSCA were identified as a “Mixture1”, each with 76% and 95% sequence coverage and a highly significant combined score of 413. The sequence coverage and peptides corresponding to PSCA are shown in FIGS. 18 and 19 and Table 7 (SEQ ID NO: 18 to 22). The peptides isolated by this method corresponding to HnRNPG as shown in Table 8 (SEQ ID NO: 72 to 110).

[2] = molecular target: T2, PSPep3 (Biotin LCNASGAHALQ), negative peptide (human); assay: ELISA on peptide-coated plate
T2 construct: Synthetic peptide derived from PSCA, 1306.59 amu; also called PSPep3 (Negative)
T2 peptide: Biotin-LCNASGAHALQ
Protocol: (§1) Peptide solutions were diluted 1-in-100 with Hank's buffered saline solution (HBSS) containing 0.5% formaldehyde. 100 μL of diluted peptide solution was distributed to each well in a 96-well plate. The plates were incubated at room temperature for 1 hour. The supernatant was removed and the plates were placed uncovered in a 37° C. incubator for 16-18 hours. The peptide-coated plates were placed in plastic bags and stored at 2-8° C. until required.
(§2) The plates were washed as previously described with the wash buffer (PBS containing 0.5% Tween 20). The plates were incubated with 1:6000 dilution of anti-human IgG-HRP for one hour at room temperature. The plates were washed as previously described. 100 μL of TMB substrate (TMB peroxidase substrate KPL cat# 50-76-00) was added to each well and incubated for 5-10 minutes in the dark. The reaction was terminated by adding 100 μL of 1M phosphoric acid to each well. The optical density was measured at 450 nm using an ELISA plate reader.

[3] = molecular target: T3, PSPep1 (Biotin TARIRAVGLLTVISK) (human); assay: ELISA on peptide-coated plate
T3 construct: Synthetic peptide, part of the immunogen of the commercial anti-PSCA antibodies, 1823.9 amu
T3 peptide: Biotin-TARIRAVGLLTVISK
Protocol: as §1, §2

[4] = molecular target: T4, antigen bound by VB1-213 on A-375 tumor cells; assay: flow cytometry saturation curve on A-375 cells, Lineweaver-Burk method
T4 construct: Placeholder target for the KD measured on whole A-375 cells; also called A-375 carcinoma cells
Protocol: Flow cytometry was used to assess binding affinity (C. A. Benedict, A. J. MacKrell, W. F. Anderson, J. Immunol. Methods 201, 223 (1997)). A range of antibody concentrations were tested against a fixed number of tumor cells (A-375) for 2 hours to obtain a saturation curve. Values and graphical analysis were generated using Sigma Plot (Jandel Scientific, San Rafael, Calif.). The inverse of the determined median fluorescence was plotted as a function of the inverse of antibody concentration to determine KD by the Lineweaver-Burk method.

B1: VB1-213 monoclonal antibody (antibody, human IgG1, V domains shown)
VH: EVQLLESGGGLVQPGGSLRLSCAASGFTFRSYAMSWVRQAPGKGLEWVSTISGRGVTTYYADSVKGRFTISRDNSKNTLYLQMNSLRADDTALYYCAKDRTRYYGMDVWGQGTTVTVSS
VL: SYELTQPPSVSVSPGQTASITCSGNKLGDKYACWYQQKSGQSPVLVIYQDSKRPSGIPERFSGSNSGNTATLTISGTQALDEADYYCQAWDNSTAVFGGGTKLTVLG
notes: Human IgG1, lambda monoclonal antibody from a hybridoma (lymph node cells of an ovarian cancer patient fused with MFP-2); no constant regions for the IgG as tested
binding result [1]: binds
binding result [2]: no binding
binding result [3]: no binding
Kd [4]: 627 nM
